Legend:
[1] = biological target: She2p;She3p (Saccharomyces cerevisiae;Saccharomyces cerevisiae) (UniProt P36068+P38272); assay: EMSA; conditions: EMSA: 20 mM HEPES pH 7.8, 200 mM NaCl, 2 mM MgCl2, 2 mM DTT, 4% glycerol, 30 or 100 ug/ml yeast tRNA, 5 nM RNA, 20 C; filter binding: 20 mM HEPES pH 7.4-7.5 (7.)
[2] = biological target: Full-length His-She3p (Saccharomyces cerevisiae) (UniProt P38272); assay: SPR; Biacore 3000, CM-5 chip, She3p amine-coupled, She2p flowed over, HNMD-buffer; steady state, Langmuir isotherm; duplicates
Chain of Full-length His-She3p (Saccharomyces cerevisiae) (P38272 whole entry): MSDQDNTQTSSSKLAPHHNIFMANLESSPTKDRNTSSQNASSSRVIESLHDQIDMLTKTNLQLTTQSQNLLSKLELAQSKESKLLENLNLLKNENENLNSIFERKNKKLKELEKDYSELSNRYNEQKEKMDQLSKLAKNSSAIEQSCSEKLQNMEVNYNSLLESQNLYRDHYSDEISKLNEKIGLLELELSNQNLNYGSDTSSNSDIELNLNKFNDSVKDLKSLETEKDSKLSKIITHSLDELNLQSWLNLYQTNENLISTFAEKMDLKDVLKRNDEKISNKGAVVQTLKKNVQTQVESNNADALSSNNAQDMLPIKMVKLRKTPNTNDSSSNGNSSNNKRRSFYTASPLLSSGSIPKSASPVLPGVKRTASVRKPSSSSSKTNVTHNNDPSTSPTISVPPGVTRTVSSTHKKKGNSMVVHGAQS

Chain of She2p;She3p (Saccharomyces cerevisiae;Saccharomyces cerevisiae) (P36068 whole entry, chain 1 of 2): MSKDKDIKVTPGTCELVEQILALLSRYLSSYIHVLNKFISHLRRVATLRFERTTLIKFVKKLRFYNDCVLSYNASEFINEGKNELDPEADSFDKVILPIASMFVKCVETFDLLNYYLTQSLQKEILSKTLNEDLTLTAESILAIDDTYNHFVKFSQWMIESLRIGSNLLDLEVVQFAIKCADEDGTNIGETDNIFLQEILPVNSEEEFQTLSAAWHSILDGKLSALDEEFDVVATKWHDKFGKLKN
Chain of She2p;She3p (Saccharomyces cerevisiae;Saccharomyces cerevisiae) (P38272 whole entry, chain 2 of 2): as the sequence (P38272 whole entry) above

Kd [2] | Substance | Kd [1]
– | HIV-1 TAR (length not stated) | > 1.5 µM
2 µM | She2p (ΔC) (from UniProt P36068 1-240) (domain or fragment) | –

From paper PMC3079584
